Assay results from PMC4873981.

Biological target: Myc-MRTF, full-length Y866G mutant (UniProt P59759)
Test: co-IP; LLC-PK1 cells co-transfected with Myc-MRTF constructs and HA-TAZ constructs, IP with anti-Myc, blot for HA; untreated or LCM 30 min

UniProt P59759, sequence (P59759 whole entry Y866G): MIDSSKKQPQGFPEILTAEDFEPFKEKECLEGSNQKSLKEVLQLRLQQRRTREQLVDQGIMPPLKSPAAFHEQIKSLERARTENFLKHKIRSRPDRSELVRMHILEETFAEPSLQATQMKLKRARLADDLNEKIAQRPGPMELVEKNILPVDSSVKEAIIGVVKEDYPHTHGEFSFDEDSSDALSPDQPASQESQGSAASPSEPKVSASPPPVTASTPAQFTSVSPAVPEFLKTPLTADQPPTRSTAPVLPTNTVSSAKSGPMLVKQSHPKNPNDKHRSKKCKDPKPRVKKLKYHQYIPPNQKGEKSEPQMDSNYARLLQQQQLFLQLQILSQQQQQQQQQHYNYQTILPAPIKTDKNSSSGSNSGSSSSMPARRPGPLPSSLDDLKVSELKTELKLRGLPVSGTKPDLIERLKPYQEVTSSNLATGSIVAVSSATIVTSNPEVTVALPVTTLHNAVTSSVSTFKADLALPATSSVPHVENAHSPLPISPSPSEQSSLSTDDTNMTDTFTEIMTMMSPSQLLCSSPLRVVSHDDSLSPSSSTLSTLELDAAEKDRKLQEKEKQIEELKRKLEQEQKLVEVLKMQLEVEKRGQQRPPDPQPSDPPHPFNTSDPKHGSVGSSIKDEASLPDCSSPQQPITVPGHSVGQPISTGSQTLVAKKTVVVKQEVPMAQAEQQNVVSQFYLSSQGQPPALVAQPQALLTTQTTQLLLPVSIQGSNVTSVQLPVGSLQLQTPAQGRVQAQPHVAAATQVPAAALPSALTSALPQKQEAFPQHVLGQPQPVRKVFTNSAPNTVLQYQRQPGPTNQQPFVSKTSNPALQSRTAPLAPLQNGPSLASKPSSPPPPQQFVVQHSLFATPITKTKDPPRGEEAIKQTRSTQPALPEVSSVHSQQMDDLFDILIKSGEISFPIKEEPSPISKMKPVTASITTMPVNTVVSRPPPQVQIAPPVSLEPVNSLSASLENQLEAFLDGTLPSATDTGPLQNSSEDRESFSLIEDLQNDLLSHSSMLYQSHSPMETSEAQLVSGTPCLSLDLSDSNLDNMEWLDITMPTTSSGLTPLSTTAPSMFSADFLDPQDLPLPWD

How did the reduction in association against WT MRTF turn out when “HA-TAZ, wild type (from UniProt Q9GZV5 1-400) (natural protein)” was run?
The reduction in association against WT MRTF was over 50%.
